Measured values published in PMC3137622.
Substitutions are numbered along the chain they refer to. Names and notes keep the numbering of the source. Each block holds one binder with its values, some of them ahead of it.

What was measured:
[1] = biological target: monoclonal antibody 7C11 (anti-Bla g 2); assay: competition ELISA; settings: chain shown with the change, solid phase rBla g 2-N93Q, read off a plot
[2] = biological target: monoclonal antibody 7C11 (anti-Bla g 2); assay: ELISA dose-response; settings: chain shown with the change, read off a plot
[3] = biological target: monoclonal antibody 4C3 (anti-Bla g 2); assay: competition ELISA; settings: chain shown with the change, solid phase rBla g 2-N93Q, read off a plot
[4] = biological target: monoclonal antibody 4C3 (anti-Bla g 2); assay: ELISA dose-response; settings: chain shown with the change, read off a plot
[5] = competitor concentration 0.1 µg/ml, parent: est. 47
[6] = competitor concentration 1 µg/ml, parent: est. 5
[7] = allergen concentration 100 ng/ml, parent: est. 1.8
[8] = competitor concentration 0.1 µg/ml, parent: est. 82
[9] = allergen concentration 100 ng/ml, parent: est. 1.5
[10] = competitor concentration 100 µg/ml, parent: est. 1
[11] = allergen concentration 100 ng/ml, parent: est. 0.48
[12] = competitor concentration 1 µg/ml, parent: est. 32
[13] = competitor concentration 10 µg/ml, parent: est. 5
[14] = competitor concentration 0.1 µg/ml
[15] = competitor concentration 1 µg/ml
[16] = allergen concentration 100 ng/ml, parent: est. 1.3
[17] = competitor concentration 10 µg/ml, parent: est. 1
[18] = allergen concentration 100 ng/ml (read on the curve line), parent: est. 1.8
[19] = competitor concentration 100 µg/ml, parent: est. 0
[20] = allergen concentration about 400 ng/ml (highest point of the series), parent: est. 1.9

Sequence of monoclonal antibody 7C11 (anti-Bla g 2) (chain, as listed by the source, chain 2 of 2, other chains not shown): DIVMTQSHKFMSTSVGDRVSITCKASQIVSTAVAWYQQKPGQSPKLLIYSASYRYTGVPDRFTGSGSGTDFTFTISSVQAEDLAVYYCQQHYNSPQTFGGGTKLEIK
Sequence of monoclonal antibody 4C3 (anti-Bla g 2) (chain, as listed by the source, chain 1 of 2): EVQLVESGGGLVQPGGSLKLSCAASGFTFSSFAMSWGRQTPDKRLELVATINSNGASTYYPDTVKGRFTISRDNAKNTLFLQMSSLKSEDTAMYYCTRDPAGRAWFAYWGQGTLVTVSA
Sequence of monoclonal antibody 4C3 (anti-Bla g 2) (chain, as listed by the source, chain 2 of 2): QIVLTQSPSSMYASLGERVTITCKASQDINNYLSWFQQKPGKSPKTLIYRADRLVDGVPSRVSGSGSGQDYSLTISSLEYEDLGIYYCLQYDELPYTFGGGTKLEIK

other: Biotinylated mAb 7C11 bound to Bla g 2 (%) [1, 5]: 82% | other: Biotinylated mAb 7C11 bound to Bla g 2 (%) [1, 6]: 13% | response (Absorbance (405 nm)) [2, 7]: 1.5
B1: recombinant Bla g 2-N93Q R83A (protein)
chain: VPLYKLVHVFINTQYAGITKIGNQNFLTVFDSTSCNVVVASQECVGGACVCPNLQKYEKLKPKYISDGNVQVKFFDTGSAVGAGIEDSLTISQLTTSQQDIVLADELSQEVCILSADVVVGIAAPGCPNALKGKTVLENFVEENLIAPVFSIHHARFQDGEHFGEIIFGGSDWKYVDGEFTYVPLVGDDSWKFRLDGVKIGDTTVAPAGTQAIIDTSKAIIVGPKAYVNPINEAIGCVVEKTTTRRICKLDCSKIPSLPDVTFVINGRNFNISSQYYIQQNGNLCYSGFQPCGHSDHFFIGDFFVDHYYSEFNWENKTMGFGRSVESV

other: Biotinylated mAb 4C3 bound to Bla g 2 (%) [3, 8]: 72% | response (Absorbance (405 nm)) [4, 9]: 1.7
B2: recombinant Bla g 2-N93Q E233R (protein)
chain: B1 chain with A83R, E233R

other: Biotinylated mAb 4C3 bound to Bla g 2 (%) ([3]; competitor concentration 0.1 µg/ml, parent: est. 88): 93% | other: Biotinylated mAb 4C3 bound to Bla g 2 (%) ([3]; competitor concentration 1 µg/ml, parent: est. 46): 82% | other: Biotinylated mAb 4C3 bound to Bla g 2 (%) ([3]; competitor concentration 10 µg/ml, parent: est. 7): 78% | other: Biotinylated mAb 4C3 bound to Bla g 2 (%) [3, 10]: 62% | response (Absorbance (405 nm)) [4, 11]: 0.2 | response (Absorbance (405 nm)) ([4]; allergen concentration about 400 ng/ml (highest point of the series), parent: est. 1.1): 0.4
B3: recombinant Bla g 2-N268Q E233R; I199W (protein)
chain: B1 chain with A83R, Q93N, I200W, E233R, N271Q

other: Biotinylated mAb 4C3 bound to Bla g 2 (%) [3, 12]: 58% | other: Biotinylated mAb 4C3 bound to Bla g 2 (%) [3, 13]: 15% | response (Absorbance (405 nm)) [4, 9]: 1
B4: recombinant Bla g 2-N93Q E233A (protein)
chain: B1 chain with A83R, E233A

response (Absorbance (405 nm)) [4, 11]: 1.2
B5: recombinant Bla g 2-N268Q E233R (protein)
chain: B1 chain with A83R, Q93N, E233R, N271Q

other: Biotinylated mAb 7C11 bound to Bla g 2 (%) [1, 5]: 82% | other: Biotinylated mAb 7C11 bound to Bla g 2 (%) [1, 6]: 18% | response (Absorbance (405 nm)) [2, 7]: 1.5
B6: recombinant Bla g 2-N93Q E86A (protein)
chain: B1 chain with A83R, E86A

other: Biotinylated mAb 4C3 bound to Bla g 2 (%) [3, 8]: 48% | other: Biotinylated mAb 4C3 bound to Bla g 2 (%) [3, 12]: 7% | response (Absorbance (405 nm)) [4, 9]: 1.8
B7: recombinant Bla g 2-N93Q D248A (protein)
chain: B1 chain with A83R, D251A

other: Biotinylated mAb 4C3 bound to Bla g 2 (%) [3, 14]: 88% | other: Biotinylated mAb 4C3 bound to Bla g 2 (%) [3, 15]: 46% | other: Biotinylated mAb 4C3 bound to Bla g 2 (%) ([3]; competitor concentration 10 µg/ml): 7% | response (Absorbance (405 nm)) [4, 16]: 0.48
B8: natural Bla g 2 N268Q (protein)
chain: B1 chain with A83R, Q93N, N271Q

other: Biotinylated mAb 7C11 bound to Bla g 2 (%) [1, 5]: 91% | other: Biotinylated mAb 7C11 bound to Bla g 2 (%) [1, 6]: 47% | other: Biotinylated mAb 7C11 bound to Bla g 2 (%) [1, 17]: 11% | response (Absorbance (405 nm)) [2, 18]: 0.3 | response (Absorbance (405 nm)) ([2]; allergen concentration about 4000 ng/ml (highest point of the series)): 1.2
B9: recombinant Bla g 2-N93Q K65A (protein)
chain: B1 chain with K63A, A83R

other: Biotinylated mAb 7C11 bound to Bla g 2 (%) [1, 5]: 98% | other: Biotinylated mAb 7C11 bound to Bla g 2 (%) [1, 6]: 82% | other: Biotinylated mAb 7C11 bound to Bla g 2 (%) [1, 19]: 5% | response (Absorbance (405 nm)) [2, 18]: 0.48 | response (Absorbance (405 nm)) ([2]; allergen concentration about 4000 ng/ml (highest point of the series; curve at plateau)): 0.73
B10: recombinant Bla g 2-N93Q D68aA (protein)
chain: B1 chain with D67A, A83R

other: Biotinylated mAb 4C3 bound to Bla g 2 (%) [3, 8]: 100% | other: Biotinylated mAb 4C3 bound to Bla g 2 (%) [3, 12]: 100% | other: Biotinylated mAb 4C3 bound to Bla g 2 (%) [3, 13]: 69% | other: Biotinylated mAb 4C3 bound to Bla g 2 (%) [3, 10]: 22% | response (Absorbance (405 nm)) [4, 9]: 0.14 | response (Absorbance (405 nm)) [4, 20]: 0.27
B11: recombinant Bla g 2-N93Q E233R; I199W (protein)
chain: B1 chain with A83R, I200W, E233R

other: Biotinylated mAb 4C3 bound to Bla g 2 (%) [3, 14]: 82% | other: Biotinylated mAb 4C3 bound to Bla g 2 (%) [3, 15]: 32% | response (Absorbance (405 nm)) [4, 16]: 1.5
B12: natural Bla g 2 N93Q (protein)
chain: B1 chain with A83R

other: Biotinylated mAb 7C11 bound to Bla g 2 (%) [1, 5]: 100% | other: Biotinylated mAb 7C11 bound to Bla g 2 (%) [1, 6]: 100% | other: Biotinylated mAb 7C11 bound to Bla g 2 (%) [1, 17]: 99% | other: Biotinylated mAb 7C11 bound to Bla g 2 (%) [1, 19]: 70% | response (Absorbance (405 nm)) [2, 7]: 0.12 | response (Absorbance (405 nm)) ([2]; allergen concentration about 400 ng/ml (highest point of the series), parent: est. 1.8): 0.15
B13: recombinant Bla g 2-N93Q K132A (protein)
chain: B1 chain with A83R, K132A

other: Biotinylated mAb 4C3 bound to Bla g 2 (%) [3, 8]: 100% | other: Biotinylated mAb 4C3 bound to Bla g 2 (%) [3, 12]: 100% | other: Biotinylated mAb 4C3 bound to Bla g 2 (%) [3, 13]: 93% | other: Biotinylated mAb 4C3 bound to Bla g 2 (%) [3, 10]: 60% | response (Absorbance (405 nm)) [4, 9]: 0.14 | response (Absorbance (405 nm)) [4, 20]: 0.27
B14: recombinant Bla g 2-N93Q K251A (protein)
chain: B1 chain with A83R, K254A
